± gives the uncertainty stated by the source.
Test: self-splicing fitness, log relative to wild type (ln ratio); higher = more splicing; Tetrahymena group I intron in knt gene, E. coli kanamycin selection, DiMSum; sequences stand for … in CUCUCU…GGAGGGAAAAGUUAUCAGGCAUGCACCUGGUAGCUAGUCUUUAAACCAAUAGAUUGCAUCGGUUUAAAAGGCAAGACCGUCAAAUUGCGGGAAAGGGGUCAACAGCCGUUCAGUACCAAGUCUCAGGGGAAACUUUGAGAUGGCCUUGCAAAGGGUAUGGUAAUAAGCUGACGGACAUGGUCCUAACCACGCAGCCAAGUCCUAAGUCAACAGAUCUUCUGUUGAUAUGGAUGCAGUUCACAGACUAAAUGUCGGUCGGGGAAGAUGUAUUCUUCUCAUAAGAUAUAGUCGGACCUCUCCUUAAUGGGAGCUAGCGGAUGAAGUGAUGCAACACUGGAGCCGCUGGGAACUAAUUUGUAUGCGAAAGUAUAUUGAUUAGUUUUGGAGUACUCGUGGUCG
Method in brief: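 The eight P1ex-region nucleotides of an intron in the knt kanamycin-resistance gene on pET-22b(+) were all randomised and the library put into E. coli BL21(DE3). Six replicate transformations were grown overnight at 37°C or 30°C on LB agar with or without 25 μg/mL kanamycin, together with 100 μg/mL carbenicillin, 50 μM IPTG and 0.2% rhamnose. Colonies were pooled and amplicon-sequenced on an Illumina HiSeq 2500. Fitness from DiMSum is the error-weighted combination of wild-type-normalised replicate fold changes, kanamycin over none.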

Sequence | self-splicing fitness (ln) (30 °C) | self-splicing fitness (ln) (37 °C)
AUGAAGCAAUAUUACGCAGC | -2.75 ± 0.24 | -0.841 ± 0.38
AUGAAGCAAUAUUACGCAUU | -3.78 ± 0.43 | -2.52 ± 0.31
AUGAAGCAAUAUUACGCGUG | -0.281 ± 0.066 | -0.171 ± 0.099
AUGAAGCAAUAUUACGCUAA | -1.32 ± 0.1 | -0.00859 ± 0.13
AUGAAGCAAUAUUACGGAAU | -0.972 ± 0.074 | -0.789 ± 0.091
AUGAAGCAAUAUUACGGCCU | 0.063 ± 0.094 | 0.456 ± 0.13
AUGAAGCAAUAUUACGGGCG | -0.667 ± 0.081 | 0.118 ± 0.1
AUGAAGCAAUAUUACGGGCU | -1.52 ± 0.11 | -0.445 ± 0.13
AUGAAGCAAUAUUACGUCUU | -2.04 ± 0.081 | -1.44 ± 0.087
AUGAAGCAAUAUUACGUUGC | -3.64 ± 0.2 | -3.01 ± 0.26
AUGAAGCAAUAUUACGUUGG | -2.72 ± 0.16 | -1.58 ± 0.2
AUGCAGCAAUAUUACGAACC | -1.17 ± 0.17 | -0.688 ± 0.21
AUGCAGCAAUAUUACGAACU | -0.238 ± 0.1 | 0.379 ± 0.11
AUGCAGCAAUAUUACGAAGA | -1.8 ± 0.18 | -2.36 ± 0.27
AUGCAGCAAUAUUACGACAG | -0.0726 ± 0.086 | -0.339 ± 0.16
AUGCAGCAAUAUUACGACCA | -1.45 ± 0.17 | -0.579 ± 0.18
AUGCAGCAAUAUUACGACGG | -1.74 ± 0.11 | -1.41 ± 0.14
AUGCAGCAAUAUUACGAGCA | -0.52 ± 0.089 | -0.627 ± 0.097
AUGCAGCAAUAUUACGAUGA | -1.93 ± 0.16 | -1.04 ± 0.14
AUGCAGCAAUAUUACGAUGU | -0.358 ± 0.061 | 0.146 ± 0.085
AUGCAGCAAUAUUACGAUUG | -2.67 ± 0.2 | -2.83 ± 0.32
AUGCAGCAAUAUUACGCACU | -0.148 ± 0.12 | 0.309 ± 0.16
AUGCAGCAAUAUUACGCCCC | -0.386 ± 0.27 | -1.04 ± 0.27
AUGCAGCAAUAUUACGCGAA | -1.76 ± 0.13 | -1.03 ± 0.11

Sequence | self-splicing fitness (ln) (30 °C) | self-splicing fitness (ln) (37 °C)
AUGCAGCAAUAUUACGCGGA | -2.88 ± 0.11 | -0.559 ± 0.069
AUGCAGCAAUAUUACGCGUA | -2.09 ± 0.18 | -1.71 ± 0.2
AUGCAGCAAUAUUACGCUAU | -2 ± 0.12 | -1.33 ± 0.14
AUGCAGCAAUAUUACGGCUU | -0.164 ± 0.072 | 0.254 ± 0.085
AUGCAGCAAUAUUACGUACA | -0.892 ± 0.064 | -0.686 ± 0.076
AUGCAGCAAUAUUACGUCAA | -2.35 ± 0.19 | -0.997 ± 0.14
AUGCAGCAAUAUUACGUCCU | 0.0695 ± 0.095 | 0.786 ± 0.11
AUGCAGCAAUAUUACGUCGG | -2.43 ± 0.22 | -1.91 ± 0.26
AUGCAGCAAUAUUACGUGAU | -1.76 ± 0.067 | -0.91 ± 0.08
AUGCAGCAAUAUUACGUUAA | -2.58 ± 0.1 | -1.71 ± 0.094
AUGCAGCAAUAUUACGUUUA | -2.04 ± 0.095 | -1.21 ± 0.089
AUGGAGCAAUAUUACGAACG | -2.21 ± 0.25 | -2.35 ± 0.5
AUGGAGCAAUAUUACGAAUG | -3.6 ± 0.34 | -2.35 ± 0.18
AUGGAGCAAUAUUACGAAUU | -3.14 ± 0.47 | -1.14 ± 0.25
AUGGAGCAAUAUUACGAGAU | -3.73 ± 0.28 | -1.96 ± 0.2
AUGGAGCAAUAUUACGAUGA | -2.98 ± 0.41 | -1.36 ± 0.46
AUGGAGCAAUAUUACGCUGC |  | -2.95 ± 0.38
AUGGAGCAAUAUUACGCUUG | -1.46 ± 0.12 | -0.294 ± 0.12
AUGGAGCAAUAUUACGGAUC | -2.51 ± 0.25 | -2.57 ± 0.36
AUGGAGCAAUAUUACGGCAC | -1.14 ± 0.37 | -0.0162 ± 0.42
AUGGAGCAAUAUUACGGCCU | -1.32 ± 0.19 | -0.862 ± 0.24
AUGGAGCAAUAUUACGGGAA | -2.71 ± 0.2 | -2.33 ± 0.17
AUGGAGCAAUAUUACGGGCU |  | -1.55 ± 0.41
AUGGAGCAAUAUUACGUAAA | -3.85 ± 0.26 | -2.09 ± 0.26

Sequence | self-splicing fitness (ln) (30 °C) | self-splicing fitness (ln) (37 °C)
AUGGAGCAAUAUUACGUAAU | -0.694 ± 0.15 | -0.189 ± 0.12
AUGGAGCAAUAUUACGUAGU | -2.7 ± 0.11 | -1.62 ± 0.097
AUGGAGCAAUAUUACGUCUA | -1.38 ± 0.23 | -0.778 ± 0.19
AUGGAGCAAUAUUACGUCUG | -2.81 ± 0.24 | -2.04 ± 0.25
AUGGAGCAAUAUUACGUGAA | -2.92 ± 0.27 | -2.03 ± 0.42
AUGGAGCAAUAUUACGUUCG | -1.89 ± 0.14 | -0.826 ± 0.19
AUGGAGCAAUAUUACGUUUU | -3.1 ± 0.36 | -2.05 ± 0.31
AUGUAGCAAUAUUACGAAAA | -0.961 ± 0.34 | -0.547 ± 0.31
AUGUAGCAAUAUUACGAACG | -1.27 ± 0.13 | -0.894 ± 0.16
AUGUAGCAAUAUUACGAAGG | -3.73 ± 0.34 | -2.61 ± 0.3
AUGUAGCAAUAUUACGAGCA | -1.07 ± 0.11 | -1.07 ± 0.12
AUGUAGCAAUAUUACGAGGC |  | -1.47 ± 0.28
AUGUAGCAAUAUUACGAGUG | -2.52 ± 0.12 | -2.72 ± 0.18
AUGUAGCAAUAUUACGAUAA | -1.76 ± 0.13 | -1 ± 0.15
AUGUAGCAAUAUUACGAUAC | -3.33 ± 0.28 | -1.82 ± 0.21
AUGUAGCAAUAUUACGAUGC | -1.49 ± 0.11 | -0.827 ± 0.16
AUGUAGCAAUAUUACGCAAC | -2.69 ± 0.45 | -0.382 ± 0.27
AUGUAGCAAUAUUACGCACG | -1.02 ± 0.11 | 0.147 ± 0.14
AUGUAGCAAUAUUACGCAGC | -2.64 ± 0.37 | -0.433 ± 0.17
AUGUAGCAAUAUUACGCAUA | -2.46 ± 0.28 | -1.85 ± 0.26
AUGUAGCAAUAUUACGCCUA | -0.493 ± 0.17 | 0.198 ± 0.23
AUGUAGCAAUAUUACGCGGG | -4.31 ± 0.33 | -2.37 ± 0.2
AUGUAGCAAUAUUACGCUCU | -1.95 ± 0.13 | -0.655 ± 0.17
AUGUAGCAAUAUUACGGACA | -0.611 ± 0.083 | 0.202 ± 0.12

Sequence | self-splicing fitness (ln) (30 °C) | self-splicing fitness (ln) (37 °C)
AUGUAGCAAUAUUACGGAUA | -1.43 ± 0.16 | -1.83 ± 0.28
AUGUAGCAAUAUUACGGCAC | -1.59 ± 0.18 | 0.329 ± 0.18
AUGUAGCAAUAUUACGGCUG | -1.95 ± 0.14 | -2.27 ± 0.28
AUGUAGCAAUAUUACGGGAU | -1.9 ± 0.12 | -1.33 ± 0.2
AUGUAGCAAUAUUACGUAAU | -1.21 ± 0.11 | -0.524 ± 0.12
AUGUAGCAAUAUUACGUCCG | -2.71 ± 0.13 | -1.39 ± 0.12
AUGUAGCAAUAUUACGUCUA | -1.25 ± 0.14 | -0.893 ± 0.15
AUGUAGCAAUAUUACGUGUC | -3.79 ± 0.31 | -2.81 ± 0.26
AUGUAGCAAUAUUACGUUGA | -3.43 ± 0.29 | -1.35 ± 0.22
AUGUAGCAAUAUUACGUUUA | -2.38 ± 0.13 | -1.86 ± 0.12
AUUAAGCAAUAUUACGAAUA | -1.29 ± 0.21 | -0.938 ± 0.21
AUUAAGCAAUAUUACGAGAA |  | -1.08 ± 0.38
AUUAAGCAAUAUUACGAGAU | -2.99 ± 0.21 | -1.47 ± 0.16
AUUAAGCAAUAUUACGAGCU | -0.659 ± 0.14 | -0.821 ± 0.2
AUUAAGCAAUAUUACGAGUU | -2.42 ± 0.17 | -1.27 ± 0.22
AUUAAGCAAUAUUACGCGCG | -0.63 ± 0.13 | -0.752 ± 0.17
AUUAAGCAAUAUUACGCGGC |  | -2.33 ± 0.31
AUUAAGCAAUAUUACGCUGU | -3.23 ± 0.16 | -1.97 ± 0.19
AUUAAGCAAUAUUACGCUUU | -2.38 ± 0.24 | -1.24 ± 0.32
AUUAAGCAAUAUUACGGCUG | -0.405 ± 0.083 | -0.233 ± 0.1
AUUAAGCAAUAUUACGGGGU | -4.11 ± 0.24 | -2.83 ± 0.2
AUUAAGCAAUAUUACGGUUA | -1.18 ± 0.095 | -1.19 ± 0.085
AUUAAGCAAUAUUACGUAAG | -0.562 ± 0.12 | -0.864 ± 0.19
AUUAAGCAAUAUUACGUCUG | -1.74 ± 0.11 | -0.762 ± 0.12

Reference: the supplement of paper PMC7877785
